Experimental findings from patent US20230055005A1 (ROCHE DIAGNOSTICS OPERATIONS, published 2023) are described below.

Assay in all cases: ECL assay (Elecsys 2010), ruthenylated antibody and biotinylated peptide, streptavidin beads
For assay [1], the target named is T1, Bi-SEQ ID NO: 3, *H**Glu(Bi-PEG)*…laEA*NH2 (disulfide 6-11; not fully specified).
T1 construct: Synthetic peptide; 12-27 of mature prothrombin with Gla at 25
T1 peptide: {Glu(Bi-PEG)″}-NLERECVEETCSY[Gla]EA-NH2
As to the method: (§1) An Elecsys 2010 immunoanalyzer was used to determine the reactivity of selected anti-PIVKA-II antibodies with the above peptide as follows:
(§2) 50 μL of ruthenylated anti-PIVKA-II antibody (300 ng/mL in assay buffer—s. example 2.4) were reacted with 50 μL of biotinylated peptide (2.5 ng/mL in assay buffer) and 70 μL assay-buffer in a first step, and incubated at 37° C. for 9 min. After addition of 30 μL streptavidin coated paramagnetic Elecsys® beads (0.7 mg/mL; see example 2.4) and a second incubation step (37° C., 9 min), the reaction mixture was aspirated into the measuring cell where the microparticles are magnetically captured onto the surface of the measuring-electrode. Unbound substances are removed with ProCell system-buffer (Roche Diagnostics GmbH, Germany). Application of a voltage to the electrode then induces electrochemiluminescense-based emission of light which is measured by a photomultiplier.

Assay [2] deals with T2, Bi-SEQ ID NO: 1, *H**Glu(Bi-PEG)*NLERECVEETCSYEEA*NH2 (disulfide 6-11 (inferred)).
T2 construct: Synthetic peptide
T2 peptide: {Glu(Bi-PEG)}-NLERECVEETCSYEEA-NH2
Here is the method:
as §1, §2

Assay [3] deals with T3, Bi-SEQ ID NO: 4, *H**Glu(Bi-PEG)*…laTCSYEEA*NH2 (disulfide 6-11).
T3 construct: Synthetic peptide; 12-27 of mature prothrombin with Gla at 20
T3 peptide: {Glu(Bi-PEG)(3)}-NLERECVE[Gla]TCSYEEA-NH2
As to the method: as §1, §2

Assay [4] has as its target Bi-SEQ ID NO: 2, *H**Glu(Bi-PEG)*NLERECVGlaETCSYEEA*NH2.

Bridge positions count the residues as written; N and C are the ends. Square brackets hold non-standard residues; d marks the D form. Primed or numbered codes have the meaning given here. Glu(Bi-PEG)″ = Nδ-(N-biotinyl-3-(2-(2-(3-aminopropyloxy)-ethoxy)-ethoxypropyl)-L-glutamine, biotin-PEG linker residue; Glu(Bi-PEG) = N-terminal added Glu carrying a biotin-linker; Glu(Bi-PEG)(3) = N-terminal added Glu biotin-linker residue; Gla = N[C@@H](CC(C(=O)O)C(=O)O)C(=O)O

B1: monoclonal anti-PIVKA-II antibody 9A6 (antibody, V domains shown)
VH: QSVEESGGRLITPGTPLTLTCTVSGFDLSRYAVGWVRQAPGKGLEYIGLIVSDGRTYYASWAKGRFTVSKTSSTTVDLKMTSPTAGDTATYYCYRNVSLWGQGTLVSVSS
VL: DVVMTQTPSSVEAAVGGTVTIKCQASQSIGSNLAWYQQKPGQPPKLLIYSASTLASGVPSRFSGSGSGTEFTLTFSGVQCGDAATYFCQSYAGVSANIFYYSFGGGTEVVVM
notes: Recombinant rabbit IgG from B-cell cloning, expressed in HEK cells
B1: the “reactivity (signal normalized to Bi-SEQ ID NO:1)” value stood at 107% in assay [1], 100% in assay [2], 78% in assay [3] and 5% in assay [4].

B2: monoclonal anti-PIVKA-II antibody 13H7 (antibody, V domains shown)
VH: QSVEESGGRLVTPETPLTLTCTVSGFDLSRYAMGWVRQAPGKGLEYIGLIVSDGRTYYASWAKGRFTISKTSSTTVDLKMASPTTEDTATYYCYRNVSLWGQGTLVSVSE
VL: DVVMTQTPSSVEAAVGGTVTIKCQASQSIGSNLAWYQQKPGQPPKLLIYSASTLASGVSSRFKGSGSGTEFTLTISDLECADAATYYCQSYAGISANIFYYAFGGGTEVVVM
notes: as for B1
For B2, the “reactivity (signal normalized to Bi-SEQ ID NO:1)” value in assay [1] was 107%; in assay [2] it was 100%; in assay [3], 68%; in assay [4], 5%.

B3: monoclonal anti-PIVKA-II antibody 4E8 (antibody, V domains shown)
VH: QSVEESGGRLVTPGTPLTLTCTVSGFDLSRYAVGWVRQAPGKGLEYIGLITSDGRTYYANWAKGRFTVSKTSSTTVDLKMTSPTTEDTATYYCYRNVSLWGQGTLVSVSS
VL: DVVMTQTPASVEAAVGGTVTIKCQASQSIGSNLAWYQQKSGQPPKLLIYSASTLAPGVSSRFSGSGSGTEFTLTFTGVQCGDAATYFCQSYAGVSANIFYYSFGGGTEVVVM
notes: as for B1
On to B3, for which the “reactivity (signal normalized to Bi-SEQ ID NO:1)” value was determined as 108% in assay [1], 100% in assay [2], 76% in assay [3] and 5% in assay [4].

B4: monoclonal anti-PIVKA-II antibody 7A10 (antibody, V domains shown)
VH: QSLEESGGRLVTPGTPLTLTCTVSGIDLSTYAMGWVRQAPGKGLEYIGIIRSSGRTYYASWAKGRFTVSKTSSTTVDLSMTSPTTEDTATYYCYRNVSLWGQGTLVSVSS
VL: DVVMTQTPSSVEAAVGGTVTIKCQASQSIGNNLAWYQQKPGQRPNLLIYSASTLASGVPSRFRGSGSGTEFTLTISGVQCDDAATYYCQSYAGVSESVFWYSFGGGTGVVVK
notes: as for B1
Turning to B4, the “reactivity (signal normalized to Bi-SEQ ID NO:1)” value amounted to 105% in assay [1], 100% in assay [2], 68% in assay [3] and 4% in assay [4].
